Measured values from the supplement of paper PMC6757056.
± gives the standard deviation of the averaged measurements.

B1: library; a variant is named by its letters at N, in order (parent)
chain: GCUGUCACCGAGAAACUGUGAAGUAUAUCUUAAACCUGGGCACUUAAAAGAUAUAUGGAGUUAGUAGUGCAACCUGCUCGGUCUGAUGAGUCCNNNNNNGGACGAAACAGC

How the values were obtained:
cyclic di-GMP [1] = variants of: B1; assay: FACS-Seq fitted mean relative fluorescence mCherry/BFP without ligand (log10 relative fluorescence); HEK293T; ligand: cyclic di-GMP (c-di-GMP-II aptamer); higher = higher reporter protein expression; details: ligand present: no
Outline: (§1)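 With or without ligand for 48 h, enriched HEK293T libraries carrying a lentiviral ribozyme-switch mCherry reporter and EF1α-BFP were sorted into 6 mCherry/BFP bins. Bin genomic DNA was amplified by PCR, barcoded and sequenced on MiSeq. Fluorescence was taken from normal fits to the resulting bin counts. Each fitted mean of log10(mCherry/BFP) was scaled to five spiked-in control ribozymes.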

cyclic di-GMP [2] = variants of: B1; assay: normalized RNA/DNA level without ligand (relative to sTRSVctl = 100) (log10 (% of sTRSVctl)); HEK293T; ligand: cyclic di-GMP (c-di-GMP-II aptamer); higher = less ribozyme self-cleavage, higher mRNA level; details: reporter: mCherry (pCS4076), ligand present: no
Outline: (§2)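 HEK293T cells received ligand, where used, 1 h before being transfected with 4 µg per 6-well well of library plasmids encoding reporter-linked ribozyme switches. After 72 h, RNA was extracted with EDTA and sequenced. RNA level was derived from RNA reads per DNA read, normalized to a spiked-in non-cleaving sequence or the top sequences, then scaled and log-transformed. Values were ×100 then log10, the top set was 25 sequences, and the minimum was 100 DNA reads.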

cyclic di-GMP [3] = variants of: B1; assay: FACS-Seq fitted mean relative fluorescence mCherry/BFP with ligand (log10 relative fluorescence); HEK293T; ligand: cyclic di-GMP (c-di-GMP-II aptamer); ligand concentration (+) FACS-Seq: 1 mM; higher = higher reporter protein expression; details: ligand present: yes
Outline: as §1

cyclic di-GMP [4] = variants of: B1; assay: normalized RNA/DNA level with ligand (relative to sTRSVctl = 100) (log10 (% of sTRSVctl)); HEK293T; ligand: cyclic di-GMP (c-di-GMP-II aptamer); ligand concentration (+) RNA-Seq: 1 mM; higher = less ribozyme self-cleavage, higher mRNA level; details: reporter: mCherry (pCS4076), ligand present: yes
Outline: as §2

Variant: CCUGUA
- FACS-Seq fitted mean (log10) (cyclic di-GMP [1]): -0.428 ± 0.0045
- normalized RNA/DNA level without ligand (log10) (cyclic di-GMP [2]): 1.54 ± 0.15
- FACS-Seq fitted mean (log10) (cyclic di-GMP [3]): -0.0267 ± 0.0096
- normalized RNA/DNA level with ligand (log10) (cyclic di-GMP [4]): 1.73 ± 0.077

Variant: CCUAUA
- FACS-Seq fitted mean (log10) (cyclic di-GMP [1]): -0.492 ± 0.012
- normalized RNA/DNA level without ligand (log10) (cyclic di-GMP [2]): 1.43 ± 0.12
- FACS-Seq fitted mean (log10) (cyclic di-GMP [3]): -0.121 ± 0.047
- normalized RNA/DNA level with ligand (log10) (cyclic di-GMP [4]): 1.65 ± 0.067

Variant: ACUCAG
- FACS-Seq fitted mean (log10) (cyclic di-GMP [1]): -0.836 ± 0.044
- normalized RNA/DNA level without ligand (log10) (cyclic di-GMP [2]): 1.61 ± 0.031
- FACS-Seq fitted mean (log10) (cyclic di-GMP [3]): -0.677 ± 0.16
- normalized RNA/DNA level with ligand (log10) (cyclic di-GMP [4]): 1.77 ± 0.1

Variant: CCUCAG
- FACS-Seq fitted mean (log10) (cyclic di-GMP [1]): -0.325 ± 0.018
- normalized RNA/DNA level without ligand (log10) (cyclic di-GMP [2]): 1.669 ± 0.003
- FACS-Seq fitted mean (log10) (cyclic di-GMP [3]): -0.0311 ± 0.077
- normalized RNA/DNA level with ligand (log10) (cyclic di-GMP [4]): 1.81 ± 0.14

Variant: CCUCAA
- FACS-Seq fitted mean (log10) (cyclic di-GMP [1]): 0.0135 ± 0.11
- normalized RNA/DNA level without ligand (log10) (cyclic di-GMP [2]): 1.46 ± 0.1
- FACS-Seq fitted mean (log10) (cyclic di-GMP [3]): 0.263 ± 0.07
- normalized RNA/DNA level with ligand (log10) (cyclic di-GMP [4]): 1.67 ± 0.066

Variant: GCGUGU
- FACS-Seq fitted mean (log10) (cyclic di-GMP [1]): -0.15 ± 0.054
- normalized RNA/DNA level without ligand (log10) (cyclic di-GMP [2]): 1.5 ± 0.085
- FACS-Seq fitted mean (log10) (cyclic di-GMP [3]): 0.114 ± 0.056
- normalized RNA/DNA level with ligand (log10) (cyclic di-GMP [4]): 1.75 ± 0.083

Variant: GCGUGA
- FACS-Seq fitted mean (log10) (cyclic di-GMP [1]): -0.266 ± 0.05
- normalized RNA/DNA level without ligand (log10) (cyclic di-GMP [2]): 1.47 ± 0.068
- FACS-Seq fitted mean (log10) (cyclic di-GMP [3]): -0.000275 ± 0.097
- normalized RNA/DNA level with ligand (log10) (cyclic di-GMP [4]): 1.65 ± 0.088

Variant: ACGUUU
- FACS-Seq fitted mean (log10) (cyclic di-GMP [1]): -0.522 ± 0.028
- normalized RNA/DNA level without ligand (log10) (cyclic di-GMP [2]): 1.32 ± 0.16
- FACS-Seq fitted mean (log10) (cyclic di-GMP [3]): -0.336 ± 0.035
- normalized RNA/DNA level with ligand (log10) (cyclic di-GMP [4]): 1.52 ± 0.078

Variant: CCUUCU
- FACS-Seq fitted mean (log10) (cyclic di-GMP [1]): -0.619 ± 0.0079
- normalized RNA/DNA level without ligand (log10) (cyclic di-GMP [2]): 1.6166 ± 0.0015
- FACS-Seq fitted mean (log10) (cyclic di-GMP [3]): -0.341 ± 0.038
- normalized RNA/DNA level with ligand (log10) (cyclic di-GMP [4]): 1.8 ± 0.063

Variant: CCUUCA
- FACS-Seq fitted mean (log10) (cyclic di-GMP [1]): -0.388 ± 0.025
- normalized RNA/DNA level without ligand (log10) (cyclic di-GMP [2]): 1.6013 ± 0.00017
- FACS-Seq fitted mean (log10) (cyclic di-GMP [3]): -0.00437 ± 0.075
- normalized RNA/DNA level with ligand (log10) (cyclic di-GMP [4]): 1.72 ± 0.15

Variant: ACGUAA
- FACS-Seq fitted mean (log10) (cyclic di-GMP [1]): -0.0329 ± 0.12
- normalized RNA/DNA level without ligand (log10) (cyclic di-GMP [2]): 1.43 ± 0.079
- FACS-Seq fitted mean (log10) (cyclic di-GMP [3]): 0.314 ± 0.082
- normalized RNA/DNA level with ligand (log10) (cyclic di-GMP [4]): 1.63 ± 0.087

Variant: ACGUAU
- FACS-Seq fitted mean (log10) (cyclic di-GMP [1]): -0.637 ± 0.067
- normalized RNA/DNA level without ligand (log10) (cyclic di-GMP [2]): 1.34 ± 0.1
- FACS-Seq fitted mean (log10) (cyclic di-GMP [3]): -0.336 ± 0.0036
- normalized RNA/DNA level with ligand (log10) (cyclic di-GMP [4]): 1.54 ± 0.036

Variant: UGAAAU
- FACS-Seq fitted mean (log10) (cyclic di-GMP [1]): -0.0172 ± 0.1
- normalized RNA/DNA level without ligand (log10) (cyclic di-GMP [2]): 1.66 ± 0.043
- FACS-Seq fitted mean (log10) (cyclic di-GMP [3]): 0.368 ± 0.014
- normalized RNA/DNA level with ligand (log10) (cyclic di-GMP [4]): 1.84 ± 0.14

Variant: ACUUUA
- FACS-Seq fitted mean (log10) (cyclic di-GMP [1]): -1.11 ± 0.037
- normalized RNA/DNA level without ligand (log10) (cyclic di-GMP [2]): 1.59 ± 0.044
- FACS-Seq fitted mean (log10) (cyclic di-GMP [3]): -0.989 ± 0.12
- normalized RNA/DNA level with ligand (log10) (cyclic di-GMP [4]): 1.76 ± 0.067

Variant: ACUUUU
- FACS-Seq fitted mean (log10) (cyclic di-GMP [1]): -0.0638 ± 0.052
- normalized RNA/DNA level without ligand (log10) (cyclic di-GMP [2]): 1.6 ± 0.053
- FACS-Seq fitted mean (log10) (cyclic di-GMP [3]): 0.272 ± 0.091
- normalized RNA/DNA level with ligand (log10) (cyclic di-GMP [4]): 1.8 ± 0.095

Variant: UCGGCA
- FACS-Seq fitted mean (log10) (cyclic di-GMP [1]): -0.241 ± 0.26
- normalized RNA/DNA level without ligand (log10) (cyclic di-GMP [2]): 1.65 ± 0.02
- FACS-Seq fitted mean (log10) (cyclic di-GMP [3]): -0.0817 ± 0.0018
- normalized RNA/DNA level with ligand (log10) (cyclic di-GMP [4]): 1.81 ± 0.12

Variant: UCGGCU
- FACS-Seq fitted mean (log10) (cyclic di-GMP [1]): -0.103 ± 0.0013
- normalized RNA/DNA level without ligand (log10) (cyclic di-GMP [2]): 1.77 ± 0.036
- FACS-Seq fitted mean (log10) (cyclic di-GMP [3]): 0.114 ± 0.004
- normalized RNA/DNA level with ligand (log10) (cyclic di-GMP [4]): 1.88 ± 0.089

Variant: ACUAAA
- FACS-Seq fitted mean (log10) (cyclic di-GMP [1]): -0.416 ± 0.14
- normalized RNA/DNA level without ligand (log10) (cyclic di-GMP [2]): 1.41 ± 0.045
- FACS-Seq fitted mean (log10) (cyclic di-GMP [3]): -0.0324 ± 0.021
- normalized RNA/DNA level with ligand (log10) (cyclic di-GMP [4]): 1.62 ± 0.088
